# According to the RNAGym collection of RNA variant scans (doi:10.7554/elife.80360):
# B1: HDV Ribozyme (parent)
# chain: GGCCGGCAUGGUCCCAGCCUCCUCGCUGGCGCCGGCUGGGCAACAUUCCGAGGGGACCGUCCCCUCGGUAAUGGCGAAUGGGACCCA
# Variants of: B1
# Assay: self-cleavage, relative activity (ratio to wild type); higher = more cleavage; co-transcriptional
row,Variant,self-cleavage
1,C7A C18G,0
2,C7G U47G,0
3,C7A C13A,0.185
4,C7G C33G,0.237
5,C7G G31U,0.745
6,C7G G25U,0.0831
7,C7A U37G,0.246
8,C7G G55C,0.214
9,C7G G55U,0.17
10,C7A A56G,0.399
11,C7A A56C,0.831
12,C7G U46A,0
13,C7A C48A,0.604
14,C7U G17A,0.332
15,C7A G67U,0.378
16,C7G C22A,0
17,C7A U9C,0.604
18,C7U C62G,0.643
19,C7U C62U,0.831
20,C7A C14U,0.447
21,C7A C14G,0
22,G6U U79A,0.246
23,G6U U79C,0.123
24,C7G G28U,0.0875

row,Variant,self-cleavage
1,C7G G28C,0
2,C7G G28A,0.0536
3,C7G C58G,0.293
4,C7G C58A,0.506
5,C7A A42U,0.108
6,C7A A42G,0.0831
7,C7A U27A,0.609
8,C7A U27G,0.447
9,C7G G80C,0
10,C7G G80U,0.0462
11,C7U G31A,0.876
12,C7U G31C,0.727
13,C7U G11C,0.119
14,C7U C64G,0.892
15,C7U C64U,0.68
16,C7A A71G,0.584
17,C7A A71U,0.462
18,C7A A71C,0.298
19,C7G G54A,0.302
20,C7G G54C,0.415
21,C7G G54U,0.219
22,C7A C19U,0.0906
23,C7G G67U,0.302
24,C7G G67A,0.128

row,Variant,self-cleavage
1,C7G A16U,0.0692
2,C7G A16C,0.151
3,C7G A16G,0.0978
4,C7A C58U,0.731
5,C7A C58G,0.705
6,C7A C36A,0.0923
7,C7A C36U,0.203
8,C7U C85G,0.985
9,C7U C85U,0.886
10,C7U G10U,0.374
11,C7A G82U,0.256
12,C7A G82A,0.0875
13,C7A G82C,0.0811
14,C7A C66G,0.243
15,C7U C75U,0.0978
16,C7A U47C,0.277
17,C7A U47G,0.317
18,C7G A78G,0.0831
19,C7G A78U,0.0791
20,C7G A78C,0.175
21,C7G C21A,0
22,C7G C21G,0
23,C7A C61U,0.441
24,C7G G17A,0

row,Variant,self-cleavage
1,C7G G17U,0
2,C7G G81C,0
3,C7G G81A,0.0594
4,C7A G39C,0
5,C7U C44A,0.403
6,C7A U65C,0.522
7,C7A C24U,0.306
8,C7A C24A,0.125
9,C7U C49G,0.665
10,C7U C14G,0.308
11,C7U C14A,0.516
12,C7G C64A,0.0831
13,C7G C64U,0.396
14,C7G C64G,0.111
15,C7U A16G,0.72
16,C7U A16U,0.643
17,C7G G35U,0.0811
18,C7A A8G,0.831
19,C7A A8C,0.65
20,C7A A8U,0.609
21,C7G A51U,0.107
22,C7G A51C,0.437
23,C7G C85U,0.32
24,C7G C85G,0.237

row,Variant,self-cleavage
1,C7G A45C,0
2,C7U C15A,0.256
3,C7U C15U,0.674
4,C7A A45U,0.332
5,C7G C48A,0.262
6,C7G C75U,0
7,C7G C75A,0
8,C7A G31U,1.07
9,C7A G31A,0.87
10,C7A G31C,1.03
11,C7U G34U,0.0923
12,C7G G53C,0
13,C7G C15A,0
14,C7G C15G,0
15,C7G C15U,0.0978
16,C7A G54U,0.609
17,C7A G54A,0.504
18,C7A A51C,0.609
19,C7A A51G,0.635
20,C7A U23A,0.739
21,C7A U23C,0.935
22,C7G,0.315
23,C7A,0.644
24,C7U,0.86

row,Variant,self-cleavage
1,C7G U72A,0.0755
2,C7G U72G,0
3,C7G U9A,0.237
4,C7G U9G,0.831
5,C7G C86G,0.378
6,C7A C44A,0.0978
7,C7U C30G,0
8,C7U C30A,0.369
9,C7G G74U,0.0361
10,C7A U72G,0
11,C7A U72A,0.308
12,C7A U72C,0.196
13,C7U A45U,0.415
14,C7U A45C,0.119
15,C7G C66A,0.161
16,C7A G50A,0.527
17,C7A G29C,0.0707
18,C7A G29U,0.0875
19,C7A G10A,0.0831
20,G6U U69C,0.655
21,G6U U69G,0.375
22,C7A C62A,0.618
23,C7A C62G,0.0665
24,C7G G68U,0.285

row,Variant,self-cleavage
1,C7G G68C,0.0504
2,C7U C22A,0.261
3,C7U C22G,0.0678
4,C7U C26U,0.867
5,C7U C26A,0.91
6,C7U C26G,0.534
7,C7U C24A,0.256
8,C7A U69C,0.617
9,C7G C24A,0.208
10,C7G C24G,0.123
11,C7A G28U,0.0361
12,C7U C21U,0.0652
13,C7U C21G,0.0739
14,C7U C21A,0.0314
15,C7A C41G,0
16,C7A C41A,0.342
17,C7G G39U,0
18,C7G U12C,0.111
19,C7A A16U,0.499
20,C7A A16G,0.249
21,C7A A16C,0.277
22,C7U C57U,0.927
23,C7U C57A,0.979
24,C7G C18G,0

row,Variant,self-cleavage
1,C7G C18A,0.0639
2,C7U G38C,0.0462
3,C7G A77C,0.0692
4,C7A C63A,0.489
5,C7A C63G,0.35
6,C7U G28C,0.237
7,C7U G28A,0.136
8,C7A G74C,0.131
9,C7G A71U,0.0639
10,C7A C30G,0.0791
11,C7A C30U,0.0396
12,C7A C30A,0.0282
13,C7A U12C,0.172
14,C7A U12A,0.0978
15,C7U A43C,0.26
16,C7U A43U,0.475
17,C7U A43G,0.19
18,C7G C49U,0.237
19,C7G C49A,0.145
20,C7G C49G,0.123
21,C7G C61U,0.237
22,C7U C86G,0.617
23,C7U C86A,0.872
24,C7U C86U,0.678

row,Variant,self-cleavage
1,C7A U79C,0.128
2,C7U A70U,0.748
3,C7A A70C,0.346
4,C7A A70U,0.356
5,C7A A70G,0.426
6,C7G C62U,0.302
7,C7A C57U,0.702
8,C7A C57A,0.597
9,C7G A42C,0.208
10,C7A G81A,0.0302
11,C7G G29U,0
12,C7G G29A,0
13,C7G G10A,0.128
14,C7A G17C,0
15,C7A G17U,0.162
16,C7A G17A,0.0475
17,C7G U65A,0
18,C7A C86G,0.571
19,C7A C86U,0.831
20,C7A C86A,0.804
21,C7G C41G,0.128
22,C7G C41U,0.0615
23,C7G C41A,0
24,C7G U23G,0.217

row,Variant,self-cleavage
1,C7G U23A,0.227
2,C7U C19G,0.0528
3,C7U C19U,0.0519
4,C7U C18U,0.277
5,C7A G52C,0.482
6,C7A G53C,0.38
7,C7U A83G,0.475
8,C7U A83C,0.287
9,C7G C32U,0.104
10,C7G C32G,0.115
11,C7U C61A,0.87
12,C7G G73C,0
13,C7A C85A,0.453
14,C7A C85U,0.807
15,C7G U79G,0.104
16,C7G U79C,0.0489
17,C7A C22G,0.0791
18,C7U A78U,0.166
19,C7U A78G,0.375
20,C7U C33A,0.0831
21,C7G C30G,0.119
22,C7G C30U,0.138
23,C7U G35A,0.109
24,C7U G35U,0.0437

row,Variant,self-cleavage
1,C7G G38C,0.0594
2,C7U C58G,1.02
3,C7U G25U,0.203
4,C7G A43C,0.111
5,C7G A43G,0
6,C7A G40C,0.102
7,C7G C57G,0.208
8,C7G C57U,0.383
9,C7A U20G,0.312
10,C7A U20C,0
11,C7U C63G,0.569
12,C7U C63A,0.751
13,C7A G68C,0.341
14,C7U C84U,0.686
15,C7G C26G,0.369
16,C7G C26A,0.138
17,C7A G35U,0.0906
18,C7A G35A,0.0841
19,C7A C21G,0
20,C7A C21A,0.0791
21,C7A C21U,0
22,C7G U37A,0.147
23,C7U A77G,0.434
24,C7A G80C,0.192

row,Variant,self-cleavage
1,C7G G52A,0.151
2,C7G C14A,0.0923
3,C7G C14U,0.196
4,C7G A83G,0.17
5,C7G A83C,0.175
6,C7U C66A,0.776
7,C7U C66G,0.974
8,C7A G55U,0.4
9,C7A G55C,0.778
10,C7A C84A,0.519
11,C7A G73A,0.106
12,C7A A43G,0
13,C7G U20C,0
14,C7G U20G,0.145
15,C7A A87C,0.514
16,C7A G25A,0.175
17,C7A G25U,0.102
18,C7G A70U,0.475
19,C7U G29U,0.157
20,C7U G29C,0.185
21,C7U G29A,0.0906
22,C7A G76C,0.988
23,C7G C84U,0
24,C7G C84G,0.0665

row,Variant,self-cleavage
1,C7U A8C,0.917
2,C7A C49A,0.538
3,C7G G82A,0.113
4,C7G C63A,0.172
5,C7G C63G,0.201
6,C7G C19U,0
7,C7A A83C,0.0923
8,C7A C75G,0.225
9,C7A C75U,0.131
10,C7A C75A,0.0923
11,C7G G59C,0.404
12,C7G G59A,0.332
13,C7G G11U,0.104
14,C7A C15A,0.0415
15,C7G A56C,0.391
16,C7G A56G,0.208
17,C7U C41A,0.571
18,C7A G34A,0.175
19,C7A G34C,0
20,C7A G34U,0
21,C7U A71C,0.322
22,C7U A71U,0.677
23,C7U A71G,0.931
24,C7A A78C,0.0554

row,Variant,self-cleavage
1,C7A A78G,0.0875
2,C7U A87G,0.91
3,C7G G76A,0.172
4,C7G G76U,0.237
5,C7U C48U,0.997
6,C7U C48A,0.767
7,C7A U46C,0.453
8,C7U A51G,0.965
9,C7G G34U,0.0504
10,C7G G34A,0.115
11,C7A G38U,0.0346
12,C7A G38A,0.0639
13,C7G G50U,0.237
14,C7G G50A,0.612
15,C7A U60G,0.356
16,C7A U60C,0.712
17,C7A U60A,0.665
18,C7G U60C,0.383
19,C7G U60G,0.256
20,C7G A87G,0.381
21,C7G A87C,0.211
22,C7G C44G,0.0755
